Measurements from patent publication US20230212319A1, “NOVEL ANTIGEN BINDING DOMAINS AND SYNTHETIC ANTIGEN RECEPTORS INCORPORATING THE SAME” (University of Southern California, priority 2020, published 2023).

Test system: RAJI cells
Assay: JNG assay, co-culture with RAJI cells
Type: cell-based
Conditions: JNG cells expressing construct, co-culture with Raji
How it was run: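 Jurkat-NFAT-GFP (JNG) cells stably expressing SAR constructs via lentiviral transduction and puromycin/blasticidin selection were cocultured with target cells at E:T ~1:2 for ~4–18 h. NFAT-driven GFP was measured by FACS versus parental JNG cells; scores +/- to 5+ denote ~5–50% GFP-positive cells.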

Molecule | NFAT-GFP ASSAY: Raji
22205 (protein) MTIRLLCYMGFYFLGAGLMEADIYQTPRYLVIGTGKKITLECSQTMGHDKMYWYQQDPGMELHLIHYSYGVNSTEKGDLSSESTVSRIRTEHFPLTLESARPSHTSQYLCASSEARGLAEFTDTQYFGPGTRLTVLEDLKNVFPPEVAVFEPSEAEISHTQKATLVCLATGFYPDHVELSWWVNGKEVHSGVCTDPQPLKEQPALNDSRYCLSSRLRVSATFWQNPRNHFRCQVQFYGLSENDEWTQDRAKPVTQIVSAEAWGRADCGFTSESYQQGVLSATILYEILLGKATLYAVLVSALVLMAMVKRKDSRGRAKRSGSGATNFSLLKQAGDVEENPGPTSATMDWIWRILFLVGAATGAHSGPQVQLQESGGGLAQAGGSLRLSCAASGRTFSMGWFRQAPGKEREFVAAITYSGGSPYYASSVRGRFTISRDNAKNTVYLQMNSLKPEDTAVYYCAANPTYGSDWNAENWGQGTQVTVSSGSGGGGSGGGGSGGGGSFEQVQLQQPGAELVKPGASVKMSCKASGYAFSSYWINWMKQKPGQGLEWIGQIYPGDGDTNYNGKFKGRATLTADTSSSTAYMQLSSLTSEDSAVYFCARSITTVVGCAMDYWGQGTSVTVSSTRIQNPDPAVYQLRDSKSSDKSVCLFTDFDSQTNVSQSKDSDVYITDKCVLDMRSMDFKSNSAVAWSNKSDFACANAFNNSIIPEDTFFPSPESSCDVKLVEKSFETDTNLNFQNLSVIGFRILLLKVAGFNLLMTLRLWSSRAKRSGSGVKQTLNFDLLKLAGDVESNPGPSRGHMTEYKPTVRLATRDDVPRAVRTLAAAFADYPATRHTVDPDRHIERVTELQELFLTRVGLDIGKVWVADDGAAVAVWTTPESVEAGAVFAEIGPRMAELSGSRLAAQQQMEGLLAPHRPKEPAWFLATVGVSPDHQGKGLGSAVVLPGVEAAERAGVPAFLETSAPRNLPFYERLGFTVTADVEVPEGPRTWCMTRKPGA | Raji (5+) (refer to approximately 5%, 10%, 20%, 30%, 40% and 50% GFP positive cells)
22207 (protein) MALPVTALLLPLALLLHAARPDIQMTQSPSSLSASVGDRVTITCKASDHINNWLAWYQQKPGQAPKLLIYGATTLETGVPSRFSGSGSGTDYTLTISSLQPEDFATYYCQQSWNTPWTFGQGTKLEIKRLEGQPKANPTVTLFPPSSEELQANKATLVCLISDFYPGAVTVAWKADGSPVKAGVETTKPSKQSNNKYAASSYLSLTPEQWKSHRSYSCQVTHEGSTVEKTVAPTECSPIKTDVITMDPKDNCSKDANDTLLLQLTNTSAYYMYLLLLLKSVVYFAIITCCLLRRTAFCCNGEKSRAKRSGSGATNFSLLKQAGDVEENPGPTSMDWIWRILFLVGAATGAHSFEQVQLQQPGAELVKPGASVKMSCKASGYAFSSYWINWMKQKPGQGLEWIGQIYPGDGDTNYNGKFKGRATLTADTSSSTAYMQLSSLTSEDSAVYFCARSITTVVGCAMDYWGQGTSVTVSSTRSQPHTKPSVFVMKNGTNVACLVKEFYPKDIRINLVSSKKITEFDPAIVISPSGKYNAVKLGKYEDSNSVTCSVQHDNKTVHSTDFEVKTDSTDHVKPKETENTKQPSKSCHKPKAIVHTEKVNMMSLTVLGLRMLFAKTVAVNFLLTAKLFFLRAKRSGSGVKQTLNFDLLKLAGDVESNPGPSRGHMTEYKPTVRLATRDDVPRAVRTLAAAFADYPATRHTVDPDRHIERVTELQELFLTRVGLDIGKVWVADDGAAVAVWTTPESVEAGAVFAEIGPRMAELSGSRLAAQQQMEGLLAPHRPKEPAWFLATVGVSPDHQGKGLGSAVVLPGVEAAERAGVPAFLETSAPRNLPFYERLGFTVTADVEVPEGPRTWCMTRKPGA | Raji (5+) (refer to approximately 5%, 10%, 20%, 30%, 40% and 50% GFP positive cells)
22117 (protein) MALPVTALLLPLALLLHAARPQLQLQESGPGLVKPSETLSLTCTVSGDSISSGDYYWGWIRQPPGKGLEWIGHIYYSGVTYYNPSLKSRVTISVDTSRNQFSLKLSSVTAADTAVYYCTREDSSNWRSRGQGTLVTVSSLEIQNPDPAVYQLRDSKSSDKSVCLFTDFDSQTNVSQSKDSDVYITDKCVLDMRSMDFKSNSAVAWSNKSDFACANAFNNSIIPEDTFFPSSDVPCDVKLVEKSFETDTNLNFQNLSVIGFRILLLKVAGFNLLMTLRLWSSRAKRSGSGVKQTLNFDLLKLAGDVESNPGPTSTMALPVTALLLPLALLLHAARPQLQLQESGPGLVKPSETLSLTCTVSGDSISSGDYYWGWIRQPPGKGLEWIGHIYYSGVTYYNPSLKSRVTISVDTSRNQFSLKLSSVTAADTAVYYCTREDSSNWRSRGQGTLVTVSSLESGGGGSFEQVQLQQPGAELVKPGASVKMSCKASGYAFSSYWINWMKQKPGQGLEWIGQIYPGDGDTNYNGKFKGRATLTADTSSSTAYMQLSSLTSEDSAVYFCARSITTVVGCAMDYWGQGTSVTVSSTREDLKNVFPPEVAVFEPSKAEIAHTQKATLVCLATGFYPDHVELSWWVNGKEVHSGVCTDPQPLKEQPALNDSRYCLSSRLRVSATFWQNPRNHFRCQVQFYGLSENDEWTQDRAKPVTQIVSAEAWGRADCGITSASYHQGVLSATILYEILLGKATLYAVLVSALVLMAMVKRKDSRGRAKRSGSGATNFSLLKQAGDVEENPGPSRGHMTEYKPTVRLATRDDVPRAVRTLAAAFADYPATRHTVDPDRHIERVTELQELFLTRVGLDIGKVWVADDGAAVAVWTTPESVEAGAVFAEIGPRMAELSGSRLAAQQQMEGLLAPHRPKEPAWFLATVGVSPDHQGKGLGSAVVLPGVEAAERAGVPAFLETSAPRNLPFYERLGFTVTADVEVPEGPRTWCMTRKPGA | 3+ (refer to approximately 5%, 10%, 20%, 30%, 40% and 50% GFP positive cells)
22103 (protein) MALPVTALLLPLALLLHAARPDIQMTQSPSSLSASVGDRVTITCKASDHINNWLAWYQQKPGQAPKLLIYGATTLETGVPSRFSGSGSGTDYTLTISSLQPEDFATYYCQQSWNTPWTFGQGTKLEIKRLEGQPKANPTVTLFPPSSEELQANKATLVCLISDFYPGAVTVAWKADGSPVKAGVETTKPSKQSNNKYAASSYLSLTPEQWKSHRSYSCQVTHEGSTVEKTVAPTECSPIKTDVITMDPKDNCSKDANDTLLLQLTNTSAYYMYLLLLLKSVVYFAIITCCLLRRTAFCCNGEKSRAKRSGSGATNFSLLKQAGDVEENPGPTSMDWIWRILFLVGAATGAHSFEQVQLQQPGAELVKPGASVKMSCKASGYAFSSYWINWMKQKPGQGLEWIGQIYPGDGDTNYNGKFKGRATLTADTSSSTAYMQLSSLTSEDSAVYFCARSITTVVGCAMDYWGQGTSVTVSSTRASTKGPSVFPLAPSSKSTSGGTAALGCLVKDYFPEPVTVSWNSGALTSGVHTFPAVLQSSGLYSLSSVVTVPSSSLGTQTYICNVNHKPSNTKVDKRVEPKSCEVKTDSTDHVKPKETENTKQPSKSCHKPKAIVHTEKVNMMSLTVLGLRMLFAKTVAVNFLLTAKLFFLRAKRSGSGVKQTLNFDLLKLAGDVESNPGPSRGHMTEYKPTVRLATRDDVPRAVRTLAAAFADYPATRHTVDPDRHIERVTELQELFLTRVGLDIGKVWVADDGAAVAVWTTPESVEAGAVFAEIGPRMAELSGSRLAAQQQMEGLLAPHRPKEPAWFLATVGVSPDHQGKGLGSAVVLPGVEAAERAGVPAFLETSAPRNLPFYERLGFTVTADVEVPEGPRTWCMTRKPGA | 4+ (refer to approximately 5%, 10%, 20%, 30%, 40% and 50% GFP positive cells)
22155 (protein) MALPVTALLLPLALLLHAARPACEVQLLESGGGLIQPGGSLRLSCAASGFTFSSHAMTWVRQAPGKGLEWVSAISGSGDYTHYADSVKGRFTISRDNSKNTVYLQMNSLRAEDSAVYYCAKDEDGGSLLGHRGQGTLVTVSSGTGGGGSGGGGSGGGGSEFSYVLTQPPSVSVAPGQTARITCGGNNIGGKSVHWYQQPPGQAPVVVVYDDSDRPSGIPERFSGSNSGNTATLTISRVEAGDEAVYYCQVWDSSSDHVVFGGGTKLTVLLEADVSPKPTIFLPSIAETKLQKAGTYLCLLEKFFPDVIKIHWQEKKSNTILGSQEGNTMKTNDTYMKFSWLTVPEKSLDKEHRCIVRHENNKNGVDQEIIFPPIKTDVITMDPKDNCSKDANDTLLLQLTNTSAYYMYLLLLLKSVVYFAIITCCLLRRTAFCCNGEKSRAKRSGSGATNFSLLKQAGDVEENPGPTSMDWIWRILFLVGAATGAHSGPQVQLQESGGGLAQAGGSLRLSCAASGRTFSMGWFRQAPGKEREFVAAITYSGGSPYYASSVRGRFTISRDNAKNTVYLQMNSLKPEDTAVYYCAANPTYGSDWNAENWGQGTQVTVSSGSGGGGSGGGGSGGGGSFEQLQLQESGPGLVKPSETLSLTCTVSGGSISSSSYFWGWIRQPPGKGLEWIGSIYYSGITYYNPSLKSRVTISVDTSKNQFSLKLSSVTAADTAVYYCARHDGAVAGLFDYWGQGTLVTVSSATRPHTKPSVFVMKNGTNVACLVKEFYPKDIRINLVSSKKITEFDPAIVISPSGKYNAVKLGKYEDSNSVTCSVQHDNKTVHSTDFEVKTDSTDHVKPKETENTKQPSKSCHKPKAIVHTEKVNMMSLTVLGLRMLFAKTVAVNFLLTAKLFFLRAKRSGSGVKQTLNFDLLKLAGDVESNPGPSRGHMTEYKPTVRLATRDDVPRAVRTLAAAFADYPATRHTVDPDRHIERVTELQELFLTRVGLDIGKVWVADDGAAVAVWTTPESVEAGAVFAEIGPRMAELSGSRLAAQQQMEGLLAPHRPKEPAWFLATVGVSPDHQGKGLGSAVVLPGVEAAERAGVPAFLETSAPRNLPFYERLGFTVTADVEVPEGPRTWCMTRKPGA | 2+ (refer to approximately 5%, 10%, 20%, 30%, 40% and 50% GFP positive cells)
22182 (protein) MALPVTALLLPLALLLHAARPACEVQLVESGGGVVQPGRSLRLSCAASGFSFSGYGMHWVRQAPGKGLEWVAYISYDGSNKYYADSVKGRFTISRDNSKNTLYLQMNSLRAEDTAVYYCAKDPAWGLRLGESSSYDFDYWGQGTMVTVSSGTGGGGSGGGGSGGGGSEFDIQMTQSPSSLSASVGDRVTITCKASDHINNWLAWYQQKPGQAPKLLIYGATTLETGVPSRFSGSGSGTDYTLTISSLQPEDFATYYCQQSWNTPWTFGQGTKLEIKRLEDLKNVFPPEVAVFEPSEAEISHTQKATLVCLATGFYPDHVELSWWVNGKEVHSGVCTDPQPLKEQPALNDSRYCLSSRLRVSATFWQNPRNHFRCQVQFYGLSENDEWTQDRAKPVTQIVSAEAWGRADCGFTSESYQQGVLSATILYEILLGKATLYAVLVSALVLMAMVKRKDSRGRAKRSGSGATNFSLLKQAGDVEENPGPTSMDWIWRILFLVGAATGAHSFEQVQLQQPGAELVKPGASVKMSCKASGYAFSSYWINWMKQKPGQGLEWIGQIYPGDGDTNYNGKFKGRATLTADTSSSTAYMQLSSLTSEDSAVYFCARSITTVVGCAMDYWGQGTSVTVSSTRIQNPDPAVYQLRDSKSSDKSVCLFTDFDSQTNVSQSKDSDVYITDKCVLDMRSMDFKSNSAVAWSNKSDFACANAFNNSIIPEDTFFPSPESSCDVKLVEKSFETDTNLNFQNLSVIGFRILLLKVAGFNLLMTLRLWSSRAKRSGSGVKQTLNFDLLKLAGDVESNPGPSRGHMTEYKPTVRLATRDDVPRAVRTLAAAFADYPATRHTVDPDRHIERVTELQELFLTRVGLDIGKVWVADDGAAVAVWTTPESVEAGAVFAEIGPRMAELSGSRLAAQQQMEGLLAPHRPKEPAWFLATVGVSPDHQGKGLGSAVVLPGVEAAERAGVPAFLETSAPRNLPFYERLGFTVTADVEVPEGPRTWCMTRKPGA | 5+ (refer to approximately 5%, 10%, 20%, 30%, 40% and 50% GFP positive cells)
